Assay results as given in the nanobody polyreactivity screen of Harvey et al. (2022).

Assay: yeast display, Sf9 membrane polyspecificity reagent, FACS + sequencing; frameworks hold sequencing errors
How it was run: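 Using colony PCR, genes from sorted yeast display clones were amplified, then sequenced on MiSeq at 2 × 250 and filtered by CDR length. The clones had been stained with 10% biotinylated, detergent-solubilized Sf9 membrane reagent for 1 hour at 4 °C and sorted by FACS into low and high (top ~1%) gates on anti-HA and streptavidin fluorescence. Polyreactivity labels come from the gate of origin.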

Row | Sequence | polyreactivity (PSR sort gate)
1 | QVQLVESGGALVQAGGSLRLSCAASGFIFNHYAMGWYRQAPGKEREFVAAISWSGGSTYYADSVKGRFTISRDNAKNTVYLQMNSLKPEETAVYYCAASYNGLWHGDYDYWGQGTQVTVSS | low polyreactivity
2 | QVQLVESGGALVQAGGSLRLSCAASGFIFSYYVMGWYRQAPGKERELVAAITTSGDSTYYADSVKGRFTISRDNAKNTVYLQMNSLKPEDTAVYYCAADIYYETIWHYGYWGQGTQVTVSS | high polyreactivity
3 | QVQLVESGGALVQAGGSLRLSCAASGFIFYSWYAMGWYRQAPGKQRELVAAIRSGGSTYYADSVKGRFTISRDNAKNTVYLQMNSLKPEDTAVYYCAVKYSWSEYGYWGQGTQVTVSS | low polyreactivity
4 | QVQLVESGGALVQAGGSLRLSCAASGFTFRGYAMGWYRQAPGKEMELVAAIRGGGGRTYYADSVKGRFTISRDNAKNTVYLQMNSLKPEDTAGYYCAASYYDYSDVRSDYWGQGTQVTVSS | high polyreactivity
5 | QVQLVESGGALVQAGGSLRLSCAASGIIFRYNAMGWYRQAPGKDREVVAAISWSTGSTYYADSVKGRFTISRDNAKNTVYLQMNSLKPEDTAVYYCNAYWLRHIYNYWGQGSQVTVSS | high polyreactivity
6 | QVQLVESGGALVQAGGSLRLSCAASGITFAYYAMGWYRQAPRKERELVASIRTGGSTYYADSVKGRFTISRDNAKNTVYLQMNSLKPEYTAVYYCARRYRTPYDYWGQGTQVTVSS | high polyreactivity
7 | QVQLVESGGALVQAGGSLRLSCAASGITFFTNAMGWYRQAPGKERELVAAISSGGRTYYADSVKGRFTISRDNAKNTVYLQMKSLKPEDTAVYYCAKRSYFYPDYYWGQGTQVTVSS | high polyreactivity
8 | QVQLVESGGALVQAGGSLRLSCAASGLIFYYYAMGWNRPAPGKERELVAAISGGGSTYYADSVKGRFTISRDNAKNTVYLQMNSLKPEDTAVYYCAASFRYPSWLYDYWGQGTQVTVSS | low polyreactivity
9 | QVQLVESGGALVQAGGSLRLSCAASGRTFFGNAMGRYRQAPGKERELVAAISFSGGRTDYADSVKGRFTISRDNAKNTVFLQMNSLKPEDTAVYYCAARTYSAPRNRYYYWGQGTQVTVSS | high polyreactivity
10 | QVQLVESGGALVQAGGSLRLSCAASGRTFGRYAMGWYRQAPGKEREFVASISRRGGTTYYADSVKGRFTLSRDNAKNTVYLQMNSLKPEDTGVYYCAKEGSPTNPWYGSYEYDYWGQGTQVTVSS | low polyreactivity
11 | QVQLVESGGALVQAGGSLRLSCAASGRTFLGYGMGWYRQAPGKERVLVAAITSGGGSTYYADSVKGRFTISRDNAKNPVYLQMNSLKPEDTAVYYCSAKYYRAYCPHSRTRGYWGQGTQVTVSS | high polyreactivity
12 | QVQLVESGGALVQAGGSLRLSCAASGSIFCYYAMGWYRQAPGKERELVAVINSGGRTNYADSVKGRFTISRDNAKNTVYLQMNSLKPEDTEVYYCAAQGYFVDRAGRYYRGDYWGQGTQVTVSS | high polyreactivity
13 | QVQLVESGGALVQAGGSLRLSCAASGSIFVYNAMGWYIPAPGKERELVAAITSDGSTNYADSVKGRFTISRDNATNTVYLQMNSLKPEDNAVYYCNAGNDQYPSFEYDYWGQGTKVTVSS | low polyreactivity
14 | QVQLVESGGALVQAGGSLRLSCAASGSIIVYNDMRSSRQAPGKQRELVAAITSSGGSTYYADSVKGRFTISRDNAKNTVYLQMNSLKPEDTAVYYCNVWDRPLTGYDYRGQGTQVTVSS | low polyreactivity
15 | QVQLVESGGALVQAGGSLRLSCAASGSTFRKYSMGWYRQAPGKERELVAVITKSGGSTYYADSVKGRFTISRDNAKNTVYLQMNSLKPEDTAVYYCAARRGGARHDYWGQGTQVTVSS | high polyreactivity
16 | QVQLVESGGALVQAGGSLRLSCAASGSTFYTYVMGWYRQAPGKQREVVADITWRGGSTYYADSENGRFTISRDNAKNTVYLLMNSLKPEDTPVYYCAALSGLLWYGRMYYWGQGTQVTVSS | high polyreactivity
17 | QVQLVESGGALVQAGGSLRLSCAASRSIFWINAMGGYRQAPGTERELVADNDVSGGSTYYADTVKGRFTISRDNAKNTVYLKMNSLKPEDTEVYYCAADDYWAYLYYKTSEYDYWGQGTQVTVSS | low polyreactivity
18 | QVQLVESGGALVQAGGSLRLSCAASRSTSKNYAMGWYRQAPGKERELVAAITRGTSTNYADSVKGRFTISRDNAKNTVYFQMNSLKPEDSAVYYCNVERHRVWDYQWREEDDYWGQGTQVTVSS | low polyreactivity
19 | QVQLVESGGALVQAGGSLRLSCAPSGRIFDFKAIGWYRQAPGKEREFVAAITWGGGSTYYADSVKGRFSISRDNAKNSVYLPMNSLKPEVTAVYYCAADGWYYYQSWFNFGMDYWGQGTQVTVSS | low polyreactivity
20 | QVQLVESGGALVQAGGSLRLSCASSGFIFGVYDMGWYRQAPGKERELVAAIDSVGSTYYADSVKGRFTISRDNAKNTVYLQMNSLKPEDTAVYYCAKDGSYQAYGYWGQGTQVTVSS | low polyreactivity
21 | QVQLVESGGALVQAGGSLSLSCAASGFIFQPYAMGWYRQAPGKERELVAAITSRGGRTYYADSVMGRFTISRDNAKNTVYLQMNSLKPEDSAVYYCNADIYASEYYYWGQGTQVTVSS | low polyreactivity
22 | QVQLVESGGALVQAGGSLSLSCAASGSIFVGNAMGWYRQAPGKERELVAAINGGGTNYADSVKGRFTFSRDNAKNTVYLQMNSLKPEDTAVYYCAAPVRSNDSAYLHRDNDYWGQGTQVTVSS | low polyreactivity

Row | Sequence | polyreactivity (PSR sort gate)
23 | QVQLVESGGALVQARGSLRLSSASSGSTFYPNAMGWYIQARGKEREFVAAISFSDGSTYYADSVKGRFTISRDNANNTVYLQMNSPKAEATAVYYCNKGASPDDYDYWGQGTQVTVSS | low polyreactivity
24 | QVQLVESGGCLDQAGGSLRLSCAASGRIFNSNTMGWYRQAPGKERELVAAITYSGGSTYYADSVKGRFTISRDNAKNTVYLQMNSLKPEDTAVYYCAADFWEYDGPWYANDYYSWGQGTQVTVSS | low polyreactivity
25 | QVQLVESGGCLDQAGGSLRLSWDASGRTFDFNAIGWYRQAPGKERELVAAITHSAGRTYYADSVKGRFTLSRDIAKNTVYLQMNSLKREDTAVYYCATRYYNYARTSYGYWGQGTQVTVSS | high polyreactivity
26 | QVQLVESGGCLFQAGGSLRLSCAASGFNFPYYAMGWYRQAPGKERELVAAINRGGSTYYADSEKGRFTISRDNAKNTVYLQMNSLKPEDTAVFYCAAGYPSWYYGYPYDSWGQGTQVNVSS | low polyreactivity
27 | QVQLVESGGCLVHAGGSLRLSCAASGRIFYTYAMGWYRQSPGNESELVAAISSRTVSTKYADSVKGRFTISRDNAKYTVYLQMNSLKPEDTAVYYCNVYSLRYGYDYCGQGTQVTVSS | high polyreactivity
28 | QVQLVESGGCLVKAGGSLRISCAASGFTFTKYAMGWYRPAPGKESELVAAINRSGRTYYADSVKGRFTISRDNAKNTVYLQMNSLKPEDTAVYDCAAYTRYQYRAYDYWGQGTQVTVSS | high polyreactivity
29 | QVQLVESGGCLVQAGCSLRLSCAASGRTFRTYVMGWYRQAPGKEREFVAGITWSSGSTRYADSVKGRFTISRDNAKNTVYLQMNSLKPEDTAVYYCNATPFYLLYSHTYIQYEGDYWGQGTQVTVSS | high polyreactivity
30 | QVQLVESGGCLVQAGGRLRLSCAASGFTFNAYSMGWYRQAPGKERELVAAINVSGGITYYADSVKGRFTISRDNAKNTVYLQMNSLKPEDTAVYYCARDIRQYILYGRGDYWGQGTQVTVSS | low polyreactivity
31 | QVQLVESGGCLVQAGGSHRLSCAASGSIFYIYAMGWYRQAPGKERELVASITFSGDITYYAYSVKGRFTISRDNAKNTFYLHMNSLKPEDTAVYYCAADYHEQSYAVTYDYWGQGTQVTVSS | low polyreactivity
32 | QVQLVESGGCLVQAGGSIRLSCAAYGSNFDNAMGWSRPATGKERELGAAITSGGITNYADSVKGRFTISRDNAKNTVYLQMNSLKPEDTAVYYCNTLSPTQTKFDYWGQGTQVTVTS | low polyreactivity
33 | QVQLVESGGCLVQAGGSLRFSCAASGLTFGRNAMGWYRQAPGTERELVAAISRSGGRTSYADSVKGRFTMSRDNAKNTVYLQMNSLKPEETAVYYCAARSDVYTHDYWGQGTQVTVSS | high polyreactivity
34 | QVQLVESGGCLVQAGGSLRLICASSGFTFRAYAMGWYIKAPGKEREFVAAISRRGGSTSYADSVKGRFTISRDNAKNTVYLQMNSLKPEDTAVYYCAATYQILTTSAHDSWGQGTQVTVSS | high polyreactivity
35 | QVQLVESGGCLVQAGGSLRLMCAASGSTFRVNAMGWSRQAPGKERELVAAITRGGSTNYADSVKGRFTISRDNAKNTVYLQMNSLKPEDTAVYYCNAGDDFGRYVPFSWGRFDYWGQGTQVTESS | low polyreactivity
36 | QVQLVESGGCLVQAGGSLRLSCAASGFIFCGNARGGYIPAPGKERELVAVITRSGGSTYADSVKGRFTISRDNAKNTVYLQMNSLKPEVTAVYYCAADQQTWWQYSLINEYDYWGQGTQVTVSS | low polyreactivity
37 | QVQLVESGGCLVQAGGSLRLSCAASGFIFDPYVMGWYIQAPGKERELVAAITYNGGRTYYADSVKGRFTISRDNAKNTVYLQMNSLKPEDTAVYYCNKDYRIGQTWYDYWGQVTQVTVSS | low polyreactivity
38 | QVQLVESGGCLVQAGGSLRLSCAASGFIFSGYVMGWYRQAPGKERELVARIDGGGTTNYADSVKGRFTISRDNAKNTVYLQMNSLKPADTAVYYCNARFGEGFDYWGQGTQVTVSS | low polyreactivity
39 | QVQLVESGGCLVQAGGSLRLSCAASGFIFSSYAMGWYRQAPGKERELVAAISVSGGSTNYADSVKGRFTISRDNAKNTVFLQMNSLKPEDTAVYYCAARVRDSLVYGGWDDYWGQGTQVTVSS | high polyreactivity
40 | QVQLVESGGCLVQAGGSLRLSCAASGFTFIRYAMGWYRQAPGKERELVAAITVSGTRTYYADSVKGRFTISRDNAKNTVYLQMNSLKPEDTAVYYCNARDVYTGYGMGYWGQGSQVTVSS | high polyreactivity
41 | QVQLVESGGCLVQAGGSLRLSCAASGFTFRWYTMGWYRQAPGKERELVAAITGSGCTTYYADSVKGRFTISRDYAKNSVYLQMNSLKPVDTAVYYCAVVTGSFRTRYTYYYLGQGTQVTVSS | high polyreactivity
42 | QVQLVESGGCLVQAGGSLRLSCAASGFTFRYYAMGWYRQAPGKEREFVAAIRSSGTTTSYADSVKGRFRISRDYAKNTVYLQMNSLKPEDTAVYFCAAGYFGPQQYYYWCQGTQVTVSS | high polyreactivity
43 | QVQLVESGGCLVQAGGSLRLSCAASGFTFSRYNMGWYRQAPGKESELVATISWSGSRTYYADSVKGRFTISRDNAKNTVYLQINSLKPDDTAFYYCNFAPHRQVFYTGQYDYWGQGTQVTVSS | high polyreactivity
